Experiment: yeast display, Sf9 membrane polyspecificity reagent, FACS + sequencing; frameworks hold sequencing errors
Summary of the method: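 After 36–48 hours of galactose induction, yeast (Saccharomyces cerevisiae BJ5465) displaying a synthetic nanobody library were stained at 4 °C for 1 hour with 10% biotinylated, detergent-solubilized Sf9 membrane reagent. Streptavidin microbeads enriched the stained cells before FACS sorting into low and high (top ~1%) gates on anti-HA and streptavidin fluorescence. Each clone's polyreactivity label reflects its gate of origin.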

Row | Sequence | polyreactivity (PSR sort gate)
1 | QVQLVESGGGLVQAGGSLRLSCAASGSTFVYYTMGCYRPAPGKETELVAAINGSGGSTYYADSVKRRFTISRDNAKNTVYLQMNSLKPEDTAVYYCDAVYWDGDDYWGQGTQVTVSS | high polyreactivity
2 | QVQLVESGGGLVQAGGSLRLSCAASGRTLDKYTLGWYRQAPGKERELVASITSGGSTNYADSVKGRFTISRDNAKNTVYLQMNTLKPEDTAVYYCNKRRRVSKMGQGYDYWGQGTQVTVTS | low polyreactivity
3 | QVQLVESGGGLVQAGGSLRLSCAASGRPFWQYAMGWKRQGPGKERELVAAITSSGGSTYDADSVKGRITISRDNAKNTVYLQMNCLKPEDTAVYYCADDTRYYRYYYWGQGTQVTVSS | high polyreactivity
4 | QVQLVQSGGGLVQAGGSLRLSCAASGSIFGYYAKGWNRQAPGKERQLVAAIDSRGGSTYYADSVKGRFTISRDNEKNTVYLQMNSLKTEDTAVYYCAARLRYPRRGQGDNYRGQGTQVTVSS | low polyreactivity
5 | QVQLVESGGGLVQAGGSLRLSCAASGTFHWYAMGWYIQAPGKEMELVAAITGSGGNTYYADSVKGRFTISRDNAKNTVYLQMNSLKPEDTAVYYCAARIYTWSVEYTGYGYWGQGTQVTVSS | high polyreactivity
6 | QVQLVESGGGLVQAGGSLRLSCAASGLILKYYAMGWYRQAPGKEREFVAAISSSGTRTYADSVKGRFTISRDNAKNTVYLQMNSLKPEDTAVYYCAKDYRVWVAATIAHDYWGQGTQVTVSS | low polyreactivity
7 | QEQLQESGGGQVQAGGSLLLSCAASGNIIRYYYMGWYRQAPGKERELVAAITYGTSTNYADSVKGRFTISRDNAKNTVYLQMNSLKPEDTAVYYCAVVVNYGDPLDNWGQGTQVTVSS | high polyreactivity
8 | QVQLVESGGGLVQAGGSLRLSCAAYGSTLATNAMGWYRPAPGKERELVAYADSVKGRFTISRDNAKNTVYLQMNSLKPEDTAVYYCAKDALVIDGGGGYDYWGQGTQVTVSS | low polyreactivity
9 | QVQLVESGGGLVQAGGSLRLSCAASGRIFILYAMGWYRQAPGKERELVATITKSGGNTYYADSVKGRFTISRDNAKNTVYLQMNSLKPEDTAVYYCAAQGRDSTPHGYWGQGTQVTVSS | high polyreactivity
10 | QVQLVESGGGLVQAGGSLRLSCAASGYTFIVNAMGWYRQAPGKERELVAAISRSGSSTRYADSVKWRFTISRDNAKNTVYLQMNSLKPEDTAVYYCGADLYSSEGRYYYWGQGTQVTVST | high polyreactivity
11 | QVQLLETGGGLVQAGGSLRLSCAASGITFKYYSMGWYRQAPGKERELFATITKRGGSTYYADSVKGRFTISRDNAKNTVYLQMNSLKPVDTAVYYCAAEILIRFWGVQWGGEYWGQGTQVTVSS | high polyreactivity
12 | QVQLVESGGGLVQAGGSLRLTCAASGFTFRKNVMGWYRQAPGKERELVAFISSSGGSTYYADSVKGRFTISRDNEKNTGYIPMNSLKPEETAVYYCNAGRYGSNLEYWGQATQVTVSS | low polyreactivity
13 | QVQLVESGGGLVQAGGSLRLSCAASGRIFWDNAMGWYRQAPGKERELVAAIDYRGGNTNYADSVKGRFTISRDNAKNTVYLQMNSLKPEDTAVYYCNAEWAVRYPGYDYWGQGTQVTVSS | low polyreactivity
14 | QVQLVESGGGLVQAGGSLRLSCAASGSTFYTNAMGWYRQAPGKEREFVAAISWSGSSTYADSVKGRFTISRDNAKNTVYLQMNSLKPEDTAVYYCAADWFKLRTDYYWGQGTQVTVSS | low polyreactivity
15 | QVQLVESGGGLVQAGGSLRLSCAASGFIFAGYAMGWYRQAPGKERELVAGITRNGGSTYYADSVKGRFTISRDNAKITVYFQMYSLNPEDTAVYYCAATRYSFGPRRVDYWRQGTQVTVSS | high polyreactivity
16 | QVQLQESGGGLVQAGGSLRLSCAASGTISDSGLMGWYRQAPVKERELVAGIRSGGITNYADSVKGRFTISRDNAKNTVYLQMNSLKPEDTAVYWGQGTQVTVSS | low polyreactivity
17 | QVQLVESGGGLVQAGGSLRLSCAASGGTFSRYVMGWYRQAPGKERELVAAITRSGSTNYADSVKGRFTISRDNAKNTVYLQMNSLKPEDTAVYYCATDKRGRIGGTFDYWGQGTQVTVSS | low polyreactivity
18 | QVQLVESGGGLFQSGGSLRLSCAASGITFRYYAMGWYRQAPGKERELVAAISSGGSTNYADSVKGRFTISRDNAKNSVYLQINSLKPEDTAVYYCYRRVYSRRYYGYYYWGQGTQVTVSS | high polyreactivity
